The source of these data is a protein production outcome set (Wang et al. 2014).

The nature of this data set: label from the status in PepcDB records.
With “FQDFEYPDYDDYRAEAFLHQQKRMECYSKAKEAYRIGKKNVATFYAQQGTLHEQKMKEANHLAAIEIFEKVNASLLPQNVLDLHGLHVDEALEHLMRVLEKKTEEFKQNGGKPYLSVITGRGNHSQGGVARIKPAVIKYLISHSFRFSEIKPGCLKVMLK”, the protein production entry was “failed”.
For “FVWHEYENAAEAAQSLADAVADALQGALDEKGGAVLAVSGGRSPIAFFNALSQKDLDWKNVGITLADERIVPTVHADSNTGLVREYLLKNKAEAAMWIPMVEDGKTETELHPDAVVDYALKHYKQPDVLVLGMGNDGHTASIFPKAPQFQTAIDGSAGVALVHTTPVTAPHERVSMTLDAIAHTGHVFLAIRGEEKKAVFDQAAQGENREYPINLVLNHQGVNCHV”, the protein production result is “failed”.
Consider “FYTNRTVVKLMTMIMAPQPGESVYDPTCGSGGLLLNCALHLKDEGKEYRTLKLYGQEINLLTSAIARMNMFMHGIEEFDIVRGNTLSNPGLLENDELKKFNVILANPPYSIKSWDRKAFESDPYGRNVWGTPPQGCADYAFQQHIQKSLDLGNGRSISLWPHGILFRDAETAMRRKMIEQDQVECVIGLGPNLFYNSPMEACLLITKTNKIESKKDKILFINAVKEVRQDKNIGYLDQVHIDKIFNAYNKFENED”, for which the protein production entry is “failed”.
In the case of “GAPLKAVSAFAPPMKTQDFNLYTNEVHAKFDDYDLGMEYARQHNKPVMLDFTGYGCVNCRKMELAVWTDPKVSSIINNDYVLITLYVDNKTPLTEPVKIMENGTERTLRTVGDKWSYLQRVKFGANAQPFYVLIDNEGNPLNKSYAYDEDISKYINFLQTGLENYRKEK”, the protein production result was “not failed”.
Consider “GDDEIAMLGRYFNQMTRQLKGQRDTLLENTHQIERRRRLFDSVLSSVTSGVVGLDSQGKVTFVNRSAERLLDWSGDEQSLDLAVAVPEFVSLFESLVAAGQETVQAEIKVTRKGQLENLLVRMSTRRGEDDTLEGYVIAFDD”, for which the protein production entry is given as “failed”.
As to “GDGVWDWDISNGSIFFSSRCRQLLGLTAPEAIAGFQLWQTGIHPDERPTVQAELAGYLRQPEGSFVTEHRFRKGEEWIWLLGRGMVVSLDIQGRPLRMIGTYSDITERKEAEAELQLLNSHLEERVAARTAELKKAMQQISIAEKQAALARMVAGMAHELNTPIGNILLCSSQIQADVAAIAKADTDRLLSRKGLQSFLQKAAESCELLQRNSELAGDLIGRFKQIAVDQLDQP”, the protein production result is recorded as “failed”.
For the sequence “GDLAGSLDLGTGRIALYSIDVSGHGVASALMTARLAGLLSGLSTDGGVARSDGACRQCAGHDSWPPEILAARLNRMMIADLGVEQYFTMAYAEIDLRSGALALVQAGHPHPVVLRAGGRVELLGQGGLPVGLLPDATFERSETRLLPGDRLFLLSDGVTECPDLSGHELGEAGLVRLLAEHAGLGSEELMEALVWALHERMGGGDFRDDVSGVLFDY”, the protein production result is recorded as “failed”.
Regarding “GEELLPDGVPEEVMESAQPVANEEIVAQLVSMGFSQLHCQKAAINTSNAGVEEAMNWLLSHMDDPDIDAPI”, the protein production result is “not failed”.
“GEGTDAIQALIQAYFTAWNTNAPERFAEIFWPDGSWVNVVGMHWRGRDQIVFAHTAFLKTIFKDCKQELVTIEARTIAPGSALAVVTLIQDAYVTPDGRQMPRAHDRLTLLAVEREGVWRFIHGHNTIVNPDAANNDPVLRMKPA”: the protein production entry was “not failed”.
As to “GFAATALPVLQRVTDRTHEATILSVRDGNHHLTVNKVDGPKTFRVTSDPGHLGALHTTSVGKALVAFEEEVERKRLLEELPLDPLTEHSITDRDKFRAEIDQVRRQGYAVMDEENEIGMRAVAVPVLNSQGHAFASLAVAVPVFRLTMEELIAHVPTLQEAAAELAARLPQ”, the protein production entry is recorded as “failed”.
For “GGLRLIPLDQVRYLQADEKYVVICHEQGEDLIEESLKSLEKEFSDRFVRIHRNCLIARAELTELRRCSDGQVQAVLRNVVTPLAVSRRCVPLLCDQLR”, the protein production result is “not failed”.
As to “GGTPSPQLTSRQEIAVVPKVFDASTMFLEAQMASIQILEQENKKIGYVHIWSNAADPYQQELQNELIYGRLRNADGLILDLRDGWGGGDISYLNIFTAKQSPSVTHVQRNGRRYTYNYQWKKPVVMLVNEGSRSSKEILAFNFQQNQIGPVLGTKTTGAVVAGRPYIMQDGSLLYVAVADVFLNGNQRLEGKGVTPDINVPFSLEYAQGVDPQKQTAIETLLKAL”, the protein production entry is “failed”.
Take “GHMARTVNLKGNPVTLVGPELKVGDRAPEAVVVTKDLQEKIVGGAKDVVQVIITVPSLDTPVCETETKKFNEIMAGMEGVDVTVVSMDLPFAQKRFCESFNIQNVTVASDFRYRDMEKYGVLIGEGALKGILARAVFIIDKEGKVAYVQLVPEITEEPNYDEVVNKVKELI”: the protein production entry is reported as “not failed”.
